According to patent publication US12068729B2, “Anti-factor XII/XIIa antibodies and uses thereof” (Regeneron Pharmaceuticals, Inc., priority 2018, dated 2024):

T1: human FXII (Homo sapiens, UniProt P00748)
T1 construct: plasma purified human FXII and FXIIa proteins (Enzyme Research Laboratories); purchased Enzyme Research Laboratories 1212; host or cells: human plasma (said of the same vendor's proteins used as immunogen)
T1 sequence (P00748 20-615): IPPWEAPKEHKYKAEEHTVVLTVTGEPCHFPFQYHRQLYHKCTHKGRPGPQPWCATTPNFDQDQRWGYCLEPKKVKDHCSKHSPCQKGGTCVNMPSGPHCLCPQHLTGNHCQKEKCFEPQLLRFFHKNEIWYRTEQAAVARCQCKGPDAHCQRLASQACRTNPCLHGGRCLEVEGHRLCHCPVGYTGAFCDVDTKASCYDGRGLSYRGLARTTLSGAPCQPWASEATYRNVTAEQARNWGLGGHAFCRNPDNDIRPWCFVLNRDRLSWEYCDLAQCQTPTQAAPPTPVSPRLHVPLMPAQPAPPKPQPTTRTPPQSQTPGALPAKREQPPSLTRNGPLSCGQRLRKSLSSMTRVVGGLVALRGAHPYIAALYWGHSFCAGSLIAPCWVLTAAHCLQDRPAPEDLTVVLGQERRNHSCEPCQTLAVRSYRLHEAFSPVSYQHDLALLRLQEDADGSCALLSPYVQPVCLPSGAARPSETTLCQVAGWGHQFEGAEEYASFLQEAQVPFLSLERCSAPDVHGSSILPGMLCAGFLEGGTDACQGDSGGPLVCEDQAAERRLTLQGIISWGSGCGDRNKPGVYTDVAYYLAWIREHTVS

T2: human FXIIa (Homo sapiens, UniProt P00748)
T2 construct: Factor XIIa, a beta-globulin plasma serine protease composed of an amino-terminal heavy chain and a carboxy-terminal light chain; purchased Enzyme Research Laboratories 1212a; host or cells: human plasma (said of the same vendor's proteins used as immunogen)
T2 sequence (P00748 20-372 limits assumed): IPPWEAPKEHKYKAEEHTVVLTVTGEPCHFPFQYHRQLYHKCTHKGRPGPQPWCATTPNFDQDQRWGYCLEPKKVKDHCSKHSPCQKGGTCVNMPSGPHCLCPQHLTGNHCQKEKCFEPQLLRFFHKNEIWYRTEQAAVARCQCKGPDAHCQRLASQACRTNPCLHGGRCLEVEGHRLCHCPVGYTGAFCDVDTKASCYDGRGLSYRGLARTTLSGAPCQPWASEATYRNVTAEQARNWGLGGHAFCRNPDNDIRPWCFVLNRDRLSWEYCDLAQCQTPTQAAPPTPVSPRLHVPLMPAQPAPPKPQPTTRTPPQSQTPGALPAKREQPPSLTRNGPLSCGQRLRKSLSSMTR
T2 sequence (P00748 373-615 limits assumed): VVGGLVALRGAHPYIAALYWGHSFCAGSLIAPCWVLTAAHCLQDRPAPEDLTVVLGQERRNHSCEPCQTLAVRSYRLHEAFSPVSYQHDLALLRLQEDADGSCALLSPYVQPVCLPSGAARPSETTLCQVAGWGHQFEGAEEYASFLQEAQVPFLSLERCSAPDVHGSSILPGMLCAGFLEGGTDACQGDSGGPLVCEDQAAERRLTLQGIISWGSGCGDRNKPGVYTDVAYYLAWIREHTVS


Columns and labels:
human FXII [1] = target: T1, human FXII; test: Surface plasmon resonance (Biacore 4000) binding kinetics, hFXII
Method: (§1) Equilibrium dissociation constant (KD) for different FXII reagents binding to purified anti-FXII monoclonal antibodies were determined using a real-time surface plasmon resonance based Biacore 4000 biosensor. All binding studies were performed in 10 mM HEPES, 300 mM NaCl, and 0.05% v/v Surfactant Tween-20, pH 7.4 (HBS-P) running buffer at 25° C. and 37° C. The Biacore CM5 sensor chip surface was first derivatized by amine coupling with the mouse anti-human Fc specific monoclonal antibody (GE Healthcare Cat #BR100839) to capture anti-FXII monoclonal antibodies. Binding studies were performed on human FXII and FXIIa (Enzyme Research Laboratories, Cat #1212 and 1212a, respectively). Different concentrations of hFXII and hFXIIa (50 nM-3.125 nM; 2-fold serial dilution) were first prepared in HBS-P running buffer and were injected over anti-human Fc captured anti-FXII monoclonal antibody surface for 3 minutes at a flow rate of 30 uL/minute, while the dissociation of monoclonal antibody bound FXII reagent was monitored for 5 minutes in HBS-P running buffer. The association rate (ka) and dissociation rate (kd) were determined by fitting the real-time binding sensorgrams to a 1:1 binding model with mass transport limitation using Scrubber 2.0c curve-fitting software. Binding dissociation equilibrium constant (KD) and dissociative half-life (t½) were calculated from the kinetic rates as: […]

human FXIIa = target: T2, human FXIIa; test: Surface plasmon resonance (Biacore 4000) binding kinetics, hFXIIa
Method: as §1

[2] = system: thrombin generated via the Extrinsic and Common pathways; test: Thrombin Generation Assay (TGA) triggered by Tissue Factor; assay type: biochemical, human; settings: Extrinsic Pathway Activation with Tissue Factor; dash cells; dose up to 500 nM
Excerpt: This Example describes the inhibitory activity of selected antibodies, as determined by four functional plasma assays: 1) Activated Partial Thromboplastin Time (aPTT), 2) Prothrombin Time (PT), 3) Thrombin Generation Assay (TGA) triggered by ellagic acid and 4) TGA triggered by Tissue Factor. The aPTT test evaluates all clotting factors of the Intrinsic and Common pathways of the coagulation cascade by measuring time for a clot to form after the addition of calcium and ellagic acid, whereas the PT test evaluates all clotting factors of the Extrinsic and Common pathways of the coagulation cascade after the addition of calcium and Tissue Factor. The TGA triggered by ellagic acid measures the rate and amount of thrombin generated via the Intrinsic and Common pathways whereas TGA triggered by Tissue Factor measures the rate and amount of thrombin generated via the Extrinsic and Common pathways.
The thrombin generation profile was determined in a Thermo Scientific Hemker Thrombinoscope in the following manner: A total of 55 ul of pooled normal human plasma was added to a well of a microplate at 37° C. Then 5 ul of a 2× serially diluted test article (antibody or small molecule inhibitor) in PBS was added to the well of the microplate and allowed to incubate for 30 min. 15 ul of Tissue Factor PPP Reagent (Diagnostica Stago) was added to the well and allowed to incubate for 45 min. Then 15 ul of Fluo Flu Cal substrate (Diagnostica Stago) was added immediately before a continuous 90 min reading of the microplate. The measured real-time thrombin concentration values were plotted against time to yield a thrombogram profile for each concentration of the test article used.

human FXII [3] = target: T1, human FXII; test: Surface plasmon resonance (Biacore 4000) binding kinetics, hFXII; remark: listed apart in the source

Molecule	Kd (human FXII [1]; 25° C.)	ka (human FXII [1]; 25° C.)	kd (human FXII [1]; 25° C.)	t½ (human FXII [1]; 25° C.)	Kd (human FXII [1]; 37° C.)	ka (human FXII [1]; 37° C.)	kd (human FXII [1]; 37° C.)	t½ (human FXII [1]; 37° C.)	Kd (human FXIIa; 25° C.)	ka (human FXIIa; 25° C.)	kd (human FXIIa; 25° C.)	t½ (human FXIIa; 25° C.)	Kd (human FXIIa; 37° C.)	ka (human FXIIa; 37° C.)	kd (human FXIIa; 37° C.)	t½ (human FXIIa; 37° C.)	Concentration required for ↑ lag time by 2× [2]	Concentration required for ↓ endogenous thrombin potential by ½ [2]	Concentration required for ↓ thrombin peak by ½ [2]	100 nM Ag Bound (RU) (human FXII [3]; 25° C.)	also measured
mAb26036: fully human anti-FXII/FXIIa monoclonal antibody, HCVR/LCVR SEQ ID NOs: 2/10 (antibody, V domains shown) VH: QVQLVQSGAEVKKPGASVTVSCKASGYTFTSYYLHWVRQAPGQGLEWMGIINPSGGSTSYAQKFQGRVTMTRDTSTSTVYMELSSLRSEDTAVYYCARGVTTVTTYYHYYNMDVWGQGTTVTVSS VL: DIQMTQSPSSLSASVGDRVTITCRASQGISNYLAWFQQKPGKAPKSLIYAASSLQSGVPSKFSGSGSGTDFTLTISSLQPEDFATYYCQKYNTYPLTFGGGTKVEIK	3.12 nM	76300 M⁻¹ s⁻¹	0.000238 s⁻¹	48.5 min	4.62 nM	121000 M⁻¹ s⁻¹	0.00056 s⁻¹	20.6 min	3.78 nM	42800 M⁻¹ s⁻¹	0.000162 s⁻¹	71.4 min	4.74 nM	84600 M⁻¹ s⁻¹	0.000401 s⁻¹	29 min	— (no effect on thrombin generation with a dose up to 500 nM)	— (no effect on thrombin generation with a dose up to 500 nM)	— (no effect on thrombin generation with a dose up to 500 nM)	146.2 RU	100 nM Ag Bound (RU) (human FXII [3]; 37° C.): 272.3 RU
mAb26048: fully human anti-FXII/FXIIa monoclonal antibody, HCVR/LCVR SEQ ID NOs: 18/26 (antibody, V domains shown) VH: EVQLVESGGGLVQPRGSLRLSCVASGFTFSDYGMSWVRQAPGKGLEWVSVIGGAGHGTYYADSVKGRFTISRDNSRNTLYLQMNSLRDEDTAVYYCAKKYYWNYVGGMDVWGRGTTVTVSS VL: DIQMTQSPSSVSASVGDRVTITCRASQDINNWLAWYQQKPGKAPKLLISTASSLQSGVPSRFSGSGSGTDFTLTISSLQPEDFATYYCQQANSLPFTFGPGTKVDIK	0.879 nM	361000 M⁻¹ s⁻¹	0.000317 s⁻¹	36.5 min	2.53 nM	276000 M⁻¹ s⁻¹	0.000698 s⁻¹	17 min	2.07 nM	208000 M⁻¹ s⁻¹	0.00043 s⁻¹	26.8 min	1.79 nM	439000 M⁻¹ s⁻¹	0.000784 s⁻¹	15 min	— (no effect on thrombin generation with a dose up to 500 nM)	— (no effect on thrombin generation with a dose up to 500 nM)	— (no effect on thrombin generation with a dose up to 500 nM)	327.5 RU	100 nM Ag Bound (RU) (human FXII [3]; 37° C.): 400.6 RU
mAb26049: fully human anti-FXII/FXIIa monoclonal antibody, HCVR/LCVR SEQ ID NOs: 34/42 (antibody, V domains shown) VH: EVQLVESGGDLVQPGGSLRLSCAASGFTFNTYAMHWVRQAPGKGLEYISAIDTKGGSTYYADSVKGRFTISRDNSKNAQYLQMDSLRVEDMAVYYCARGFGLDVWGQGTTVTVSS VL: DVVMTQSPLSLAVTLGQPASISCRSSQSLGYSDGNTYLNWFQQRPGQSPRRLIYKVSNRDSGVPDRFSGSGSGTDFTLKINRVETVDVGVYYCMQATHWPYTFGQGTKLEIK	2.74 nM	90100 M⁻¹ s⁻¹	0.000247 s⁻¹	46.7 min	8.78 nM	87000 M⁻¹ s⁻¹	0.000764 s⁻¹	15 min	5.07 nM	97600 M⁻¹ s⁻¹	0.000495 s⁻¹	23.4 min	6.31 nM	244000 M⁻¹ s⁻¹	0.00154 s⁻¹	7 min	— (no effect on thrombin generation with a dose up to 500 nM)	— (no effect on thrombin generation with a dose up to 500 nM)	— (no effect on thrombin generation with a dose up to 500 nM)	134.6 RU	100 nM Ag Bound (RU) (human FXII [3]; 37° C.): 178.5 RU
